Values of other authors in paper PMC6815954, “Rational design of caspase-responsive smart molecular probe for positron emission tomography imaging of drug-induced apoptosis” (Theranostics, 2019).

System: tumor
Design: method as in PMID 25972517

B1: ^99mTc-Annexin V: established radiotracer (protein, UniProt P08758 2-320, looked up)
Annexin A5: AQVLRGTVTDFPGFDERADAETLRKAMKGLGTDEESILTLLTSRSNAQRQEISAAFKTLFGRDLLDDLKSELTGKFEKLIVALMKPSRLYDAYELKHALKGAGTNEKVLTEIIASRTPEELRAIKQVYEEEYGSSLEDDVVGDTSGYYQRMLVVLLQANRDPDAGIDEAQVEQDAQALFQAGELKWGTDEEKFITIFGTRSVSHLRKVFDKYMTISGFQIEETIDRETSGNLEQLLLAVVKSIRSIPAYLAETLYYAMKGAGTDDHTLIRVMVSRSEIDLFNIRKEFRKNFATSLYSMIKGDTSGDYKKALLLLCGEDD
modifications: 99mTc radiolabel
notes: established radiotracer
With B1 as the molecule, how does the “differential response to treatment” value read?
Its value is “little differential response”.
